Measured values published in article PMC12496174.

Molecular target: BASP1 (brain acid soluble protein 1, CAP23, NAP22) (UniProt Q91XV3)
Assay: peptide affinity column, brain lysate, LC-MS/MS
Conditions: reference: non-phospho peptide …; sites S351

In the case of “PLPPR3 (phospholipid-phosphatase-related protein 3) (from UniProt Q7TPB0) pS351 peptide LKRApSVDVDLLA”, the “binding against the reference” value is reported as “stronger”.
